US5976792

Each substance was assayed against 125I-labeled fibronectin (assay: binding of 125I-labeled fibronectin to whole bacterial cells).
“whole cells of S. aureus sar mutant ALC136 (isogenic mutant of RN6390 carrying a sar::Tn917LTV1 mutation) (cells without a defined receptor)” was tested, and the cpm of 125I fibronectin bound to 10^9 CFU was 2390 cpm.
“whole cells of S. aureus ALC561 (ALC136 with pALC561, sar fragment nt 1-1349) (cells without a defined receptor)” showed a cpm of 125I fibronectin bound to 10^9 CFU of 19300 cpm.
“whole cells of S. aureus strain RN6390 (parental strain) (cells without a defined receptor)” showed a cpm of 125I fibronectin bound to 10^9 CFU of 3320 cpm.
